{"source": "patent US12104181B2", "about": "“Compositions and methods for treating viral infections targeting TRIM7” (THE BOARD OF REGENTS OF THE UNIVERSITY OF TEXAS SYSTEM, priority 2021, dated 2024)", "molecules": {"B1": {"name": "RNF220: human RING type E3 ligase expressed from lentiviral vector (protein, UniProt Q5VTB9 1-566, looked up)", "E3 ubiquitin-protein ligase …": "MDLHRAAFKMENSSYLPNPLASPALMVLASTAEASRDASIPCQQPRPFGVPVSVDKDVHIPFTNGSYTFASMYHRQGGVPGTFANRDFPPSLLHLHPQFAPPNLDCTPISMLNHSGVGAFRPFASTEDRESYQSAFTPAKRLKNCHDTESPHLRFSDADGKEYDFGTQLPSSSPGSLKVDDTGKKIFAVSGLISDREASSSPEDRNDRCKKKAAALFDSQAPICPICQVLLRPSELQEHMEQELEQLAQLPSSKNSLLKDAMAPGTPKSLLLSASIKREGESPTASPHSSATDDLHHSDRYQTFLRVRANRQTRLNARIGKMKRRKQDEGQREGSCMAEDDAVDIEHENNNRFEEYEWCGQKRIRATTLLEGGFRGSGFIMCSGKENPDSDADLDVDGDDTLEYGKPQYTEADVIPCTGEEPGEAKEREALRGAVLNGGPPSTRITPEFSKWASDEMPSTSNGESSKQEAMQKTCKNSDIEKITEDSAVTTFEALKARVRELERQLSRGDRYKCLICMDSYSMPLTSIQCWHVHCEECWLRTLGAKKLCPQCNTITAPGDLRRIYL"}, "B2": {"name": "MARCH5: human RING type E3 ligase expressed from lentiviral vector (protein, UniProt Q9NX47 1-278, looked up)", "E3 ubiquitin-protein ligase …": "MPDQALQQMLDRSCWVCFATDEDDRTAEWVRPCRCRGSTKWVHQACLQRWVDEKQRGNSTARVACPQCNAEYLIVFPKLGPVVYVLDLADRLISKACPFAAAGIMVGSIYWTAVTYGAVTVMQVVGHKEGLDVMERADPLFLLIGLPTIPVMLILGKMIRWEDYVLRLWRKYSNKLQILNSIFPGIGCPVPRIPAEANPLADHVSATRILCGALVFPTIATIVGKLMFSSVNSNLQRTILGGIAFVAIKGAFKVYFKQQQYLRQAHRKILNYPEQEEA"}, "B3": {"name": "RNF14: human RING type E3 ligase expressed from lentiviral vector (protein, UniProt Q9UBS8 1-474, looked up)", "E3 ubiquitin-protein ligase …": "MSSEDREAQEDELLALASIYDGDEFRKAESVQGGETRIYLDLPQNFKIFVSGNSNECLQNSGFEYTICFLPPLVLNFELPPDYPSSSPPSFTLSGKWLSPTQLSALCKHLDNLWEEHRGSVVLFAWMQFLKEETLAYLNIVSPFELKIGSQKKVQRRTAQASPNTELDFGGAAGSDVDQEEIVDERAVQDVESLSNLIQEILDFDQAQQIKCFNSKLFLCSICFCEKLGSECMYFLECRHVYCKACLKDYFEIQIRDGQVQCLNCPEPKCPSVATPGQVKELVEAELFARYDRLLLQSSLDLMADVVYCPRPCCQLPVMQEPGCTMGICSSCNFAFCTLCRLTYHGVSPCKVTAEKLMDLRNEYLQADEANKRLLDQRYGKRVIQKALEEMESKEWLEKNSKSCPCCGTPIEKLDGCNKMTCTGCMQYFCWICMGSLSRANPYKHFNDPGSPCFNRLFYAVDVDDDIWEDEVED", "modifications": "lentiviral expression", "notes": "human RING type E3 ligase expressed from lentiviral vector"}, "B4": {"name": "RNF144A: human RING type E3 ligase expressed from lentiviral vector (protein, UniProt P50876 1-292, looked up)", "E3 ubiquitin-protein ligase …": "MTTTRYRPTWDLALDPLVSCKLCLGEYPVEQMTTIAQCQCIFCTLCLKQYVELLIKEGLETAISCPDAACPKQGHLQENEIECMVAAEIMQRYKKLQFEREVLFDPCRTWCPASTCQAVCQLQDVGLQTPQPVQCKACRMEFCSTCKASWHPGQGCPETMPITFLPGETSAAFKMEEDDAPIKRCPKCKVYIERDEGCAQMMCKNCKHAFCWYCLESLDDDFLLIHYDKGPCRNKLGHSRASVIWHRTQVVGIFAGFGLLLLVASPFLLLATPFVLCCKCKCSKGDDDPLPT"}, "B5": {"name": "RNF121: human RING type E3 ligase expressed from lentiviral vector (protein, UniProt Q9H920 2-327, looked up)", "E3 ubiquitin ligase RNF121": "AAVVEVEVGGGAAGERELDEVDMSDLSPEEQWRVEHARMHAKHRGHEAMHAEMVLILIATLVVAQLLLVQWKQRHPRSYNMVTLFQMWVVPLYFTVKLHWWRFLVIWILFSAVTAFVTFRATRKPLVQTTPRLVYKWFLLIYKISYATGIVGYMAVMFTLFGLNLLFKIKPEDAMDFGISLLFYGLYYGVLERDFAEMCADYMASTIGFYSESGMPTKHLSDSVCAVCGQQIFVDVSEEGIIENTYRLSCNHVFHEFCIRGWCIVGKKQTCPYCKEKVDLKRMFSNPWERPHVMYGQLLDWLRYLVAWQPVIIGVVQGINYILGLE"}, "B6": {"name": "ZNRF1: human RING type E3 ligase expressed from lentiviral vector (protein, UniProt Q8ND25 2-227, looked up)", "E3 ubiquitin-protein ligase …": "GGKQSTAARSRGPFPGVSTDDSAVPPPGGAPHFGHYRTGGGAMGLRSRSVSSVAGMGMDPSTAGGVPFGLYTPASRGTGDSERAPGGGGSASDSTYAHGNGYQETGGGHHRDGMLYLGSRASLADALPLHIAPRWFSSHSGFKCPICSKSVASDEMEMHFIMCLSKPRLSYNDDVLTKDAGECVICLEELLQGDTIARLPCLCIYHKSCIDSWFEVNRSCPEHPAD", "modifications": "lentiviral expression", "notes": "as for B3"}, "B7": {"name": "RNFT1: human RING type E3 ligase expressed from lentiviral vector (protein, UniProt Q5M7Z0 1-435, looked up)", "E3 ubiquitin-protein ligase …": "MPLFLLSLPTPPSASGHERRQRPEAKTSGSEKKYLRAMQANRSQLHSPPGTGSSEDASTPQCVHTRLTGEGSCPHSGDVHIQINSIPKECAENASSRNIRSGVHSCAHGCVHSRLRGHSHSEARLTDDTAAESGDHGSSSFSEFRYLFKWLQKSLPYILILSVKLVMQHITGISLGIGLLTTFMYANKSIVNQVFLRERSSKIQCAWLLVFLAGSSVLLYYTFHSQSLYYSLIFLNPTLDHLSFWEVFWIVGITDFILKFFFMGLKCLILLVPSFIMPFKSKGYWYMLLEELCQYYRTFVPIPVWFRYLISYGEFGNVTRWSLGILLALLYLILKLLEFFGHLRTFRQVLRIFFTQPSYGVAASKRQCSDVDDICSICQAEFQKPILLICQHIFCEECMTLWFNREKTCPLCRTVISDHINKWKDGATSSHLQIY", "modifications": "lentiviral expression", "notes": "as for B3"}, "B8": {"name": "MARCH2: human RING type E3 ligase expressed from lentiviral vector (protein, UniProt Q9P0N8 1-246, looked up)", "E3 ubiquitin-protein ligase …": "MTTGDCCHLPGSLCDCSGSPAFSKVVEATGLGPPQYVAQVTSRDGRLLSTVIRALDTPSDGPFCRICHEGANGECLLSPCGCTGTLGAVHKSCLEKWLSSSNTSYCELCHTEFAVEKRPRPLTEWLKDPGPRTEKRTLCCDMVCFLFITPLAAISGWLCLRGAQDHLRLHSQLEAVGLIALTIALFTIYVLWTLVSFRYHCQLYSEWRKTNQKVRLKIREADSPEGPQHSPLAAGLLKKVAEETPV"}, "B9": {"name": "MUL1: human RING type E3 ligase expressed from lentiviral vector (protein, UniProt Q969V5 1-352, looked up)", "Mitochondrial ubiquitin …": "MESGGRPSLCQFILLGTTSVVTAALYSVYRQKARVSQELKGAKKVHLGEDLKSILSEAPGKCVPYAVIEGAVRSVKETLNSQFVENCKGVIQRLTLQEHKMVWNRTTHLWNDCSKIIHQRTNTVPFDLVPHEDGVDVAVRVLKPLDSVDLGLETVYEKFHPSIQSFTDVIGHYISGERPKGIQETEEMLKVGATLTGVGELVLDNNSVRLQPPKQGMQYYLSSQDFDSLLQRQESSVRLWKVLALVFGFATCATLFFILRKQYLQRQERLRLKQMQEEFQEHEAQLLSRAKPEDRESLKSACVVCLSSFKSCVFLECGHVCSCTECYRALPEPKKCPICRQAITRVIPLYNS", "modifications": "lentiviral expression", "notes": "as for B3"}, "B10": {"name": "RFPL2: human RING type E3 ligase expressed from lentiviral vector (protein, UniProt O75678 1-378, looked up)", "Ret finger protein-like 2": "MEVAELGFPETAVSQSRICLCAVLCGHWDFADMMVIRSLSLIRLEGVEGRDPVGGGNLTNKRPSCAPSPQDLSAQWKQLEDRGASSRRVDMAALFQEASSCPVCSDYLEKPMSLECGCAVCLKCINSLQKEPHGEDLLCCCSSMVSRKNKIRRNRQLERLASHIKELEPKLKKILQMNPRMRKFQVDMTLDANTANNFLLISDDLRSVRSGRIRQNRQDLAERFDVSVCILGSPRFTCGRHCWEVDVGTSTEWDLGVCRESVHRKGRIQLTTELGFWTVSLRDGGRLSATTVPLTFLFVDRKLQRVGIFLDMGMQNVSFFDAESGSHVYTFRSVSAEEPLRPFLAPSVPPNGDQGVLSICPLMNSGTTDAPVRPGEAK", "modifications": "lentiviral expression", "notes": "as for B3"}, "B11": {"name": "RNF150: human RING type E3 ligase expressed from lentiviral vector (protein, UniProt Q9ULK6 35-438, looked up)", "RING finger protein 150": "EKEEWYTAFVNITYAEPAPDPGAGAAGGGGAELHTEKTECGRYGEHSPKQDARGEVVMASSAHDRLACDPNTKFAAPTRGKNWIALIPKGNCTYRDKIRNAFLQNASAVVIFNVGSNTNETITMPHAGVEDIVAIMIPEPKGKEIVSLLERNITVTMYITIGTRNLQKYVSRTSVVFVSISFIVLMIISLAWLVFYYIQRFRYANARDRNQRRLGDAAKKAISKLQIRTIKKGDKETESDFDNCAVCIEGYKPNDVVRILPCRHLFHKSCVDPWLLDHRTCPMCKMNILKALGIPPNADCMDDLPTDFEGSLGGPPTNQITGASDTTVNESSVTLDPAVRTVGALQVVQDTDPIPQEGDVIFTTNSEQEPAVSSDSDISLIMAMEVGLSDVELSTDQDCEEVKS"}, "B12": {"name": "RNF8: human RING type E3 ligase expressed from lentiviral vector (protein, UniProt O76064 1-485, looked up)", "E3 ubiquitin-protein ligase …": "MGEPGFFVTGDRAGGRSWCLRRVGMSAGWLLLEDGCEVTVGRGFGVTYQLVSKICPLMISRNHCVLKQNPEGQWTIMDNKSLNGVWLNRARLEPLRVYSIHQGDYIQLGVPLENKENAEYEYEVTEEDWETIYPCLSPKNDQMIEKNKELRTKRKFSLDELAGPGAEGPSNLKSKINKVSCESGQPVKSQGKGEVASTPSDNLDPKLTALEPSKTTGAPIYPGFPKVTEVHHEQKASNSSASQRSLQMFKVTMSRILRLKIQMQEKHEAVMNVKKQTQKGNSKKVVQMEQELQDLQSQLCAEQAQQQARVEQLEKTFQEEEQHLQGLEIAQGEKDLKQQLAQALQEHWALMEELNRSKKDFEAIIQAKNKELEQTKEEKEKMQAQKEEVLSHMNDVLENELQCIICSEYFIEAVTLNCAHSFCSYCINEWMKRKIECPICRKDIKSKTYSLVLDNCINKMVNNLSSEVKERRIVLIRERKAKRLF", "modifications": "lentiviral expression", "notes": "as for B3"}}, "tested_on": "coxsackievirus B3 (CVB3-GFP)", "format": "cell-based", "conditions": "HeLa cells, replicate R1; for Percent Infected R1: GFP-positive cells within RFP-positive gate", "data": [{"molecule": "B1", "values": [{"measurement": "Percent Infected R1", "result": 96.6, "unit": "%"}, {"measurement": "Z score R1", "result": 0.1}]}, {"molecule": "B2", "values": [{"measurement": "Percent Infected R1", "result": 91.5, "unit": "%"}, {"measurement": "Z score R1", "result": 0.04}]}, {"molecule": "B3", "values": [{"measurement": "Percent Infected R1", "result": 95.5, "unit": "%"}, {"measurement": "Z score R1", "result": 0.09}]}, {"molecule": "B4", "values": [{"measurement": "Percent Infected R1", "result": 97.7, "unit": "%"}, {"measurement": "Z score R1", "result": 0.12}]}, {"molecule": "B5", "values": [{"measurement": "Percent Infected R1", "result": 84.1, "unit": "%"}, {"measurement": "Z score R1", "result": "−0.06"}]}, {"molecule": "B6", "values": [{"measurement": "Percent Infected R1", "result": 95.8, "unit": "%"}, {"measurement": "Z score R1", "result": 0.09}]}, {"molecule": "B7", "values": [{"measurement": "Percent Infected R1", "result": 95.2, "unit": "%"}, {"measurement": "Z score R1", "result": 0.08}]}, {"molecule": "B8", "values": [{"measurement": "Percent Infected R1", "result": 92.4, "unit": "%"}, {"measurement": "Z score R1", "result": 0.05}]}, {"molecule": "B9", "values": [{"measurement": "Percent Infected R1", "result": 80.1, "unit": "%"}, {"measurement": "Z score R1", "result": "−0.11"}]}, {"molecule": "B10", "values": [{"measurement": "Percent Infected R1", "result": 93.8, "unit": "%"}, {"measurement": "Z score R1", "result": 0.07}]}, {"molecule": "B11", "values": [{"measurement": "Percent Infected R1", "result": 91.1, "unit": "%"}, {"measurement": "Z score R1", "result": 0.03}]}, {"molecule": "B12", "values": [{"measurement": "Percent Infected R1", "result": 82.8, "unit": "%"}, {"measurement": "Z score R1", "result": "−0.07"}]}]}
